Source: paper PMC4491233

Molecular target: GST-MSY3 phosphorylated in vitro by Akt (UniProt Q9JKB3)
Test: EMSA
Conditions: prior phosphorylation by Akt; binding reduced more than 50%; EMSA per earlier protocol (ref 16), 8% non-denaturing polyacrylamide gel; binding buffer, pH and temperature not given. Kinase pre-treatment: 10 mM MgCl2, 2 mM …

Sequence of GST-MSY3 phosphorylated in vitro by Akt (Q9JKB3 whole entry): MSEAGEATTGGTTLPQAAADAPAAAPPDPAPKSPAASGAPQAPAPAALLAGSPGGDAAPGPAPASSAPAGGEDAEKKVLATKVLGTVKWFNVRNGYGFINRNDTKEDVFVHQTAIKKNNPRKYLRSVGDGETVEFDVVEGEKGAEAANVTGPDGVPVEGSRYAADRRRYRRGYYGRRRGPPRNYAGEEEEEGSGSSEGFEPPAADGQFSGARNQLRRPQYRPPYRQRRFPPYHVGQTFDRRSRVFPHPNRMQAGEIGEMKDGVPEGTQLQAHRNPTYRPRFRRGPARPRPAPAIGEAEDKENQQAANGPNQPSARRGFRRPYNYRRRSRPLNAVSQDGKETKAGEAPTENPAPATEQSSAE

TCTTGATGTGCAGCAACAGCT (double strand) [MYOwt (myogHCE)]
binding signal (% of unphosphorylated GST-MSY3): < 50
